Results: patent US20030235860A1, “Interactions between AR, ER, TR2, and TR4” (priority 1999, published 2003)

T1: PR (Homo sapiens, UniProt P06401)
T1 construct: expressed in transfected cells; host or cells: H1299 (pSG5-PR)
T1 sequence (P06401 1-933): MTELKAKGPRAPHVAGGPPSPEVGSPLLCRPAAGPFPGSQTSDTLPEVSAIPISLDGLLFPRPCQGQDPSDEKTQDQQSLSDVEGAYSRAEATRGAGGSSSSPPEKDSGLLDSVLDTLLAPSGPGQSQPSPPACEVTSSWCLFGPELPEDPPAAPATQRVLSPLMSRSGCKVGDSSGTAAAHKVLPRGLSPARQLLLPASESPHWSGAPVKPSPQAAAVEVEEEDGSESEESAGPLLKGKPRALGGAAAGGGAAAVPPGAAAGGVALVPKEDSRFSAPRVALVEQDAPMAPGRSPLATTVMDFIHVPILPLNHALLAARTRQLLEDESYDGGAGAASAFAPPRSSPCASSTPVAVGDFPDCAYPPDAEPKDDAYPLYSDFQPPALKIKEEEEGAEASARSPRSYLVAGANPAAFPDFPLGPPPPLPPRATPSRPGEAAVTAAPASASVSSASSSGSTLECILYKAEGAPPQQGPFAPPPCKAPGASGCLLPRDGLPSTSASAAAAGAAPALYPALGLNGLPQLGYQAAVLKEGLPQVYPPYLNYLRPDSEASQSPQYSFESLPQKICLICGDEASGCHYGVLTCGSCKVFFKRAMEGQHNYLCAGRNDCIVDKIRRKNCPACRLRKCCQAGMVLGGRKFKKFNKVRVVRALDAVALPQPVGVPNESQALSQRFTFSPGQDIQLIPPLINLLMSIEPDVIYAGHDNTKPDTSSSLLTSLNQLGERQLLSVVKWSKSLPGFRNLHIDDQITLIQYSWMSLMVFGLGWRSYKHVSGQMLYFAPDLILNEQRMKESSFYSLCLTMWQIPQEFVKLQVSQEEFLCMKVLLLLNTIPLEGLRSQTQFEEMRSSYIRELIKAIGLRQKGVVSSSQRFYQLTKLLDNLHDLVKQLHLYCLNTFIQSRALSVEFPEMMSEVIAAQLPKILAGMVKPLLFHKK

T2: ER-ERE (Homo sapiens, UniProt P03372)
T2 construct: Human full-length ER was inserted into the EcoRI site of pSG5 to produce pSG5-ER; host or cells: TNT coupled reticulocyte lysate, in vitro translation
T2 sequence (P03372 1-595): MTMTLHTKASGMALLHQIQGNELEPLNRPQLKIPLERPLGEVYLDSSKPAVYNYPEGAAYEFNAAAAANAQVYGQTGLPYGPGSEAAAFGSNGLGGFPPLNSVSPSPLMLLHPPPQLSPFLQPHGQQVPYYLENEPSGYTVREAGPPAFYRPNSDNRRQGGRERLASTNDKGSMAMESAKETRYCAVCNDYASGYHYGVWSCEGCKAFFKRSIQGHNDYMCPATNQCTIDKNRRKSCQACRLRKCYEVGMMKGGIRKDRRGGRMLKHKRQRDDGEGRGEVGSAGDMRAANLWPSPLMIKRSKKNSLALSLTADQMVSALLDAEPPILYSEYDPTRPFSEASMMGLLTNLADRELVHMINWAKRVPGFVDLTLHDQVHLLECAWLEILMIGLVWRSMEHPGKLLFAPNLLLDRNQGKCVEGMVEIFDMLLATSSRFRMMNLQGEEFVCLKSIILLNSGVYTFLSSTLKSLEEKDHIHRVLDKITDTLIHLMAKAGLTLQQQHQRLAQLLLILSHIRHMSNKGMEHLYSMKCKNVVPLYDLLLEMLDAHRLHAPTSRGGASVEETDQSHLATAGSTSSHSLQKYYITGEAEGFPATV


Columns and labels:
PR = biological target: T1, PR; assay: PR-mediated transactivation (MMTV reporter); type: cell-based
ER-ERE = biological target: T2, ER-ERE; assay: EMSA with ERE probe; type: binding
PSA = assay: Northern blot of endogenous PSA in LNCaP cells; type: cell-based, human
Method: Total RNA from the DHT-treated transfected LNCaP cells was prepared by the ultracentrifugation method as described. Lee, et al., J: Biol. Chem. 273, 13437-13443 (1998). The probe was obtained from exon 3 of PSA gene and labeled with a-32p dCTP.
To rule out the potential artificial effects linked to transfected reporter assays, the expression of endogenous prostate specific antigen (PSA, an androgen target that is widely used as a marker for prostate cancer progression) in LNCaP cells was measured by Northern blot analysis. Total RNA (25 μg) from LNCaP cells, which were transfected with either pCMX-TR4 or pCMX vector using SuperFect (Qiagen), was applied into a formamide RNA gel, then transferred onto a Nylon membrane, and then hybridized with a 32P-PSA gene fragment from the exon 3. P-actin was used as an internal control. […] The level of secreted PSA protein in the medium measured by ELISA, also confirmed this conclusion. This in vivo TR4-mediated suppressive effect strongly supports the above reporter assays.
Total RNA from transfected LNCaP cells was prepared using TRIZOL reagents (Life Technology) as instructed by manufacturer. The probe was obtained from the PSA gene by PCR and labeled with 32P dCTP. Northern hybridization was performed as described previously [Mu X. M. et al. (2002) J Biol Chem 275:23877-23883].

PR-mediated MMTV-LUC reporter activity (PR; H1299 cells, 10 nM progesterone, increasing TR4)	ER-[32P]ERE binding band (ER-ERE; increasing amounts of in vitro expressed TR4)	Molecule	PR-mediated transactivation (MMTV-CAT) (PR; H1299 cells, 10^−8 M progesterone, increasing TR2)	PR-mediated transcription (MMTV-CAT) (PR; T47D cells, Example 2)	Intensity of ER-ERE supershift (ER-ERE; increasing amount of TR2, absence or presence of 1 μM E2, Example 1)	Intensity of ER-ERE complexes (ER-ERE; increasing amounts of TR2, absence or presence of 10 nM E2, Example 2)	PSA mRNA expression (PSA; LNCaP cells, 10 nM DHT, pCMV-TR2, Example 4)	Expression of endogenous PSA transcript (PSA; LNCaP cells transfected with pCMX-TR4, absence or presence of 10 nM DHT)
–	–	TR2: human testicular orphan nuclear receptor 2, 603 amino acids (protein, UniProt P13056 1-603, looked up, full-length, human testicular orphan nuclear receptor 2, 603 amino acids) MATIEEIAHQIIEQQMGEIVTEQQTGQKIQIVTALDHNTQGKQFILTNHDGSTPSKVILARQDSTPGKVFLTTPDAAGVNQLFFTTPDLSAQHLQLLTDNSPDQGPNKVFDLCVVCGDKASGRHYGAVTCEGCKGFFKRSIRKNLVYSCRGSKDCIINKHHRNRCQYCRLQRCIAFGMKQDSVQCERKPIEVSREKSSNCAASTEKIYIRKDLRSPLTATPTFVTDSESTRSTGLLDSGMFMNIHPSGVKTESAVLMTSDKAESCQGDLSTLANVVTSLANLGKTKDLSQNSNEMSMIESLSNDDTSLCEFQEMQTNGDVSRAFDTLAKALNPGESTACQSSVAGMEGSVHLITGDSSINYTEKEGPLLSDSHVAFRLTMPSPMPEYLNVHYIGESASRLLFLSMHWALSIPSFQALGQENSISLVKAYWNELFTLGLAQCWQVMNVATILATFVNCLHNSLQQDKMSTERRKLLMEHIFKLQEFCNSMVKLCIDGYEYAYLKAIVLFSPDHPSLENMEQIEKFQEKAYVEFQDYITKTYPDDTYRLSRLLLRLPALRLMNATITEELFFKGLIGNIRIDSVIPHILKMEPADYNSQIIGHSI	little effect	marginal effect	decreased	decreased	suppresses	–
failed to suppress	reduced	TR4: human testicular orphan nuclear receptor 4, SEQ ID NO:16; expressed from plasmid or in vitro translated (protein) MTSPSPRIQIISTDSAVASPQRIQGSEPASGPLSVFTSLNKEKIVTDQQTGQKIQIVTAVDASGSPKQQFILTSPDGAGTGKVILASPETSSAKQLIFTTSDNLVPGRIQIVTDSASVERLLGKTDVQRPQVVEYCVVCGDKASGRHYGAVSCEGCKGFFKRSVRKNLTYSCRSSQDCIINKHHRNRCQFCRLKKCLEMGMKMESVQSERKPFDVQREKPSNCAASTEKIYIRKDLRSPLIATPTFVADKDGARQTGLLDPGMLVNIQQPLIREDGTVLLATDSKAETSQGALGTLANVVTSLANLSESLNNGDTSEIQPEDQSASEITRAFDTLAKALNTTDSSSSPSLADGIDTSGGGSIHVISRDQSTPIIEVEGPLLSDTHVTFKLTMPSPMPEYLNVHYICESASRLLFLSMHRARSIPAFQGLGQDCNTSLVRACWNELFTLGLAQCAQVMSLSTILAAIVNHLQNSIQEDKLSGDRIKQVMEHIWKLQEFCNSMANWDIDGYEYAYLKAIVLFSPDHPGLTSTSQIEKFQEKAQMELQDYVQKTYSEDTYRLARILVRLPALRLMSSNITEELFFTGLIGNVSIDSIIPYILKMETAEYNGQITGVSL	–	–	–	–	–	clearly repress
